Results taken from patent US20080003630.

Target: GST-poly (Glu, Tyr) fusion protein
Sequence (chain, as listed by the source): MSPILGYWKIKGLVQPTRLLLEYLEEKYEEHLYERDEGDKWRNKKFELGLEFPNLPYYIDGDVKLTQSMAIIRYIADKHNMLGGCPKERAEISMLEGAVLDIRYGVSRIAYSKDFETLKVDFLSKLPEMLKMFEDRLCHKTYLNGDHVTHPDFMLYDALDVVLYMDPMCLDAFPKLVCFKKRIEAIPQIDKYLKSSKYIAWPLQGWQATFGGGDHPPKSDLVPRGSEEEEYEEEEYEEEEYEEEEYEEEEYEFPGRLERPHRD

B1: PDGF Receptor β Kinase, intracellular domain (ICD) (protein)
chain: RYEIRWKVIESVSSDGHEYIYVDPMQLPYDSTWELPRDQLVLGRTLGSGAFGQVVEATAHGLSHSQATMKVAVKMLKSTARSSEKQALMSELKIMSHLGPHLNVVNLLGACTKGGPIYIITEYCRYGDLVDYLHRNKHTFLQHHSDKRRPPSAELYSNALPVGLPLPSHVSLTGESDGGYMDMSKDESVDYVPMLDMKGDVKYADIESSNYMAPYDNYVPSAPERTCRATLINESPVLSYMDLVGFSYQVANGMEFLASKNCVHRDLAARNVLICEGKLVKICDFGLARDIMRDSNYISKGSTFLPLKWMAPESIFNSLYTTLSDVWSFGILLWEIFTLGGTPYPELPMNEQFYNAIKRGYRMAQPAHASDEIYEIMQKCWEEKFEIRPPFSQLVLLLERLLGEGYKKKYQQVDEEFLRSDHPAILRSQARLPGFHGLRSPLDTSSVLYTAVQPNEGDNDYIIPLPDPKPEVADEGPLEGSPSLASSTLNEVNTSSTISCDSPLEPQDEPEPEPQLELQVEPEPELEQLPDSGCPAPRAEAEDSFL
phosphorylation of the substrate with ATP, Western blotting with Anti-Phosphotyrosine clone 4G10: In +of all of (i to vii) in FIG. 1, a single band was observed at a position where the phosphorylated GST-poly (Glu, Tyr) fusion protein appears

B2: VEGF Receptor 1 Kinase, intracellular domain (ICD) (protein)
chain: RKMKRSSSEIKTDYLSIIMDPDEVPLDEQCERLPYDASKWEFARERLKLGKSLGRGAFGKVVQASAFGIKKSPTCRTVAVKMLKEGATASEYKALMTELKILTHIGHHLNVVNLLGACTKQGGPLMVIVEYCKYGNLSNYLKSKRDLFFLNKDAALHMEPKKEKMEPGLEQGKKPRLDSVTSSESFASSGFQEDKSLSDVEEEEDSDGFYKEPITMEDLISYSFQVARGMEFLSSRKCIHRDLAARNILLSENNVVKICDFGLARDIYKNPDYVRKGDTRLPLKWMAPESIFDKIYSTKSDVWSYGVLLWEIFSLGGSPYPGVQMDEDFCSRLREGMRMRAPEYSTPEIYQIMLDCWHRDPKERPRFAELVEKLGDLLQANVQQDGKDYIPINAILTGNSGFTYSTPAFSEDFFKESISAPKFNSGSSDDVRYVNAFKFMSLERIKTFEELLPNATSMFDDYQGDSSTLLASPMLKRFTWTDSKPKASLKIDLRVTSKSKESGLSDVSRPSFCHSSCGHVSEGKRRFTYDHAELERKIACCSPPPDYNSVVLYSTPPI
phosphorylation of the substrate with ATP, Western blotting with Anti-Phosphotyrosine clone 4G10: In +of all of (i to vii) in FIG. 1, a single band was observed at a position where the phosphorylated GST-poly (Glu, Tyr) fusion protein appears

B3: IGF-1 Receptor Kinase, intracellular domain (ICD) (protein)
chain: RKRNNSRLGNGVLYASVNPEYFSAADVYVPDEWEVAREKITMSRELGQGSFGMVYEGVAKGVVKDEPETRVAIKTVNEAASMRERIEFLNEASVMKEFNCHHVVRLLGVVSQGQPTLVIMELMTRGDLKSYLRSLRPEMENNPVLAPPSLSKMIQMAGEIADGMAYLNANKFVHRDLAARNCMVAEDFTVKIGDFGMTRDIYETDYYRKGGKGLLPVRWMSPESLKDGVFTTYSDVWSFGVVLWEIATLAEQPYQGLSNEQVLRFVMEGGLLDKPDNCPDMLFELMRMCWQYNPKMRPSFLEIISSIKEEMEPGFREVSFYYSEENKLPEPEELDLEPENMESVPLDPSASSSSLPLPDRHSGHKAENGPGPGVLVLRASFDERQPYAHMNGGRKNERALPLPQSSTC
phosphorylation of the plate-bound substrate, ELISA with HRP-labeled p-Tyr (PY20) antibody, absorbance (650 nm): In either case of HER1 and IGF1R, as the tyrosine kinase amount increased, a measured value was increased | phosphorylation of the substrate with ATP, Western blotting with Anti-Phosphotyrosine clone 4G10: In +of all of (i to vii) in FIG. 1, a single band was observed at a position where the phosphorylated GST-poly (Glu, Tyr) fusion protein appears

B4: ErbB4 Kinase, intracellular domain (ICD) (protein)
chain: RRKSIKKKRALRRFLETELVEPLTPSGTAPNQAQLRILKETELKRVKVLGSGAFGTVYKGIWVPEGETVKIPVAIKILNETTGPKANVEFMDEALIMASMDHPHLVRLLGVCLSPTIQLVTQLMPHGCLLEYVHEHKDNIGSQLLLNWCVQIAKGMMYLEERRLVHRDLAARNVLVKSPNHVKITDFGLARLLEGDEKEYNADGGKMPIKWMALECIHYRKFTHQSDVWSYGVTIWELMTFGGKPYDGIPTREIPDLLEKGERLPQPPICTIDVYMVMVKCWMIDADSRPKFKELAAEFSRMARDPQRYLVIQGDDRMKLPSPNDSKFFQNLLDEEDLEDMMDAEEYLVPQAFNIPPPIYTSRARIDSNRSEIGHSPPPAYTPMSGNQFVYRDGGFAAEQGVSVPYRAPTSTIPEAPVAQGATAEIFDDSCCNGTLRKPVAPHVQEDSSTQRYSADPTVFAPERSPRGELDEEGYMTPMRDKPKQEYLNPVEENPFVSRRKNGDLQALDNPEYHNASNGPPKAEDEYVNEPLYLNTFANTLGKAEYLKNNILSMPEKAKKAFDNPDYWNHSLPPRSTLQHPDYLQEYSTKYFYKQNGRIRPIVAENPEYLSEFSLKPGTVLPPPPYRHRNTVV
phosphorylation of the substrate with ATP, Western blotting with Anti-Phosphotyrosine clone 4G10: In +of all of (i to vii) in FIG. 1, a single band was observed at a position where the phosphorylated GST-poly (Glu, Tyr) fusion protein appears
